# B1: E3: human anti-Tie1 antibody from phage Fab library, reformatted as IgG; HC variable SEQ ID NO:114, LC variable SEQ ID NO:116 (antibody, V domains shown)
# VH: EVQLLESGGGLVQPGGSLRLSCAASGFTFSMYGMVWVRQAPGKGLEWVSVISPSGGNTGYADSVKGRFTISRDNSKNTLYLQVNSLRAEDTAVYYCARAPRGYSYGYYYWGQGTLVTVSSASTKGPSVFPLAPSSKSTSGG
# VL: DIQMTQSPLSLSASVGDRVTITCRASQGIGHYLAWYQQKPGKVPKLLIYTASTLQSGVPSRFSGSGSGTDFTLTINSLQPEDVATYYCQQFNSYPHTFGQGTRLDIK
# modifications: IgG constant regions; Synthetically generated peptide
# B2: parental E3 Fab: soluble Fab fragment of the parental E3 anti-Tie1 antibody (antibody, V domains shown)
# VH: EVQLLESGGGLVQPGGSLRLSCAASGFTFSMYGMVWVRQAPGKGLEWVSVISPSGGNTGYADSVKGRFTISRDNSKNTLYLQVNSLRAEDTAVYYCARAPRGYSYGYYYWGQGTLVTVSSASTKGPSVFPLAPSSKSTSGG
# VL: DIQMTQSPLSLSASVGDRVTITCRASQGIGHYLAWYQQKPGKVPKLLIYTASTLQSGVPSRFSGSGSGTDFTLTINSLQPEDVATYYCQQFNSYPHTFGQGTRLDIK
# What was measured:
# Type in all cases: binding
# Tie1 [1] = target: Tie1 (Homo sapiens, UniProt P35590); assay: Immunoprecipitation of Tie1 from HUVEC and platelet lysates; conditions: for immunoprecipitation of Tie1 from platelets: activated and inactivated platelets
# Tie1 (Homo sapiens, UniProt P35590), sequence (P35590 22-1138): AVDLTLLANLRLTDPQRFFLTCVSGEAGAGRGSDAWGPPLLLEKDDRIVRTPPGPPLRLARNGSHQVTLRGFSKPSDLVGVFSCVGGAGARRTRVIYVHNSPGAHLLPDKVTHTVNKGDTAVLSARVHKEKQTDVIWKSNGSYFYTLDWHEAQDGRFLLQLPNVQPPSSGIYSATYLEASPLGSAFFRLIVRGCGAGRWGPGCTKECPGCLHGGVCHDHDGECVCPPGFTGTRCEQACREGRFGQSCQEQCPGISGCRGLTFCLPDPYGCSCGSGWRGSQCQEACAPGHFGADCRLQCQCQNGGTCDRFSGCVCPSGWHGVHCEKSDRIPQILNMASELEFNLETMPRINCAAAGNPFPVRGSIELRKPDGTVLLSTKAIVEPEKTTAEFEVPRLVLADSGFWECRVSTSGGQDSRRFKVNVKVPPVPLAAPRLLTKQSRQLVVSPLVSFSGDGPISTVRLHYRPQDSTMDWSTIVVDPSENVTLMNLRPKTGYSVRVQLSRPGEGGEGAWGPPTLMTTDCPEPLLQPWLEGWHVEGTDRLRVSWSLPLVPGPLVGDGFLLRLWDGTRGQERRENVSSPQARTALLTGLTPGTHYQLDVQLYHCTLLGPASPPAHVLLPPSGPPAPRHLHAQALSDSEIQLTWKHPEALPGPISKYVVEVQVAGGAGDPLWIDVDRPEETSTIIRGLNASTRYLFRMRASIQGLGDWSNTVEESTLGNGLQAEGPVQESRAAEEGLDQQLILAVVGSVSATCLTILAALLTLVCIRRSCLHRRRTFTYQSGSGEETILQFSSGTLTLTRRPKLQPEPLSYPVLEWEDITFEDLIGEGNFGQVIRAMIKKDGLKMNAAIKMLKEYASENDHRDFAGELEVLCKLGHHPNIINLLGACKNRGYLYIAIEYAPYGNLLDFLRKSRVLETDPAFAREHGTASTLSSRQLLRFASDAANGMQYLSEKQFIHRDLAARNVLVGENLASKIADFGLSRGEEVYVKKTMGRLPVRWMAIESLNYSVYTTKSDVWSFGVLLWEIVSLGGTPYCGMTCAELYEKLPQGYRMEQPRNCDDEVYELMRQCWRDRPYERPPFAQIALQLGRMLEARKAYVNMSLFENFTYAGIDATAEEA
# Description: The conclusion from this study was that platelets represent a large pool of Tie1 immunoreactivity which could present a problem for development of Tie1 as a therapeutic target. […] Both activated and inactivated platelets were tested. Anti-Tie1 antibodies B2, D11, E3, the goat polyclonal AF619 (R&D) and negative control antibodies anti-FITC and anti-Streptavidin were used. HUVECS were retrieved from culture dishes by trypsinization and platelets were prepared with the platelet GelSep kit (Biocytex, Marseille, France) kit according to the guidelines of the manufacturer. Per immunoprecipitation experiment 3-5×10^6 and 3×10^8 cells platelets were used for each antibody tested. Platelets and cells were washed with PBS and spun down at 1400 rpm for 4 minutes and supernatant was removed. Then cells were lysed in 1 ml lysis buffer containing 50 mM Tris HCL pH 7.5, 150 mM NaCl, 0.5% Deoxycholic acid (DOC) and 0.5% NP-40 for 5 minutes. The lysed cells were spin down for 10 minutes at 14.000 rpm and 5 μg/ml antibody was added to the supernatant and incubated at 4° C. on a rotator. 100 μl/sample protein A beads (Uppsala, Sweden) were washed 3 times with lysis buffer (centrifugation speed: 15 seconds, 2000 rpm) then cell lysates incubated with antibody were added for 30 minutes 4° C. Then beads were washed three times with washing buffer containing 50 mM Tris HCL pH 7.5, 400 mM NaCl, 0.5% DOC, 0.5% NP-40. Finally, beads are spun down and the pellets was resuspended in an equal amount in sample buffer to perform SDS-page and Western blotting. In Western blotting Tie1 was detected with the polyclonal goat anti-Tie1 antibody.
# It has been reported that Tie1 is expressed on platelets (Tsiamis et al. (2000) J. Vasc. Res. 37(6):437). The possibility of platelet immunoreactivity with the E3 anti-Tie1 antibody was investigated by FACs analysis and immunoprecipitation studies. […] In addition, the effect of DX-2200 and DX-2210 on platelet agglutination and aggregation was investigated. […]
# Tie1 [2] = assay: Immunohistochemistry of mouse xenograft tumor sections (SW480); conditions: biotinylated antibody 10 μg/ml, formalin-fixed paraffin sections
# Description: We determined if antibody E3 binds to mouse endothelial cells in mouse xenographs. Immunohistochemistry was performed with biotinylated E3 IgG1 (a,z allotype) antibody and control antibodies anti-CD31 (endothelial cell specific marker) and anti-PCNA (proliferating cell nuclear antigen). Formalin-fixed tumor tissues from a mouse-xenograph containing SW480 cells (ATCC) were tested for the binding pattern of the human anti-Tie1 antibody E3. 5 μm sections of paraffin embedded tissues were deparaffinized, rehydrated and pretreated with warm the citrate buffer (0.01 M sodium citrate, pH6 at 95° C.) for 45 min. The slides were cooled down in fresh citrate buffer for 20 min and rinsed with distilled water. The slides were hydrogen peroxide treated, (0.3% H2O2 in PBS), and preincubated with PBS, 5% FCS, 5% heat inactivated human serum (HS) for 1 hour. Between antibody incubations slides were washed 3 times 5 minutes in PBS. Biotinylated antibodies E3 and A2-SV were diluted to a concentration of 10 μg/ml in PBS, 10% HS and incubated for 1 hour at RT. Slides were then incubated with an avidin-HRP (Dako) for 30 minutes at room temperature. Staining was detected by AEC (Vector Laboratories, Burlingame) and H2O2. The peroxidase reaction was stopped with water and slides were counter-stained with haematoxylin. The tissues were evaluated for their binding reactivity.
# human Tie1 Fc = target: T1, human Tie1 Fc (Homo sapiens, UniProt P35590); assay: BIAcore, Fab over Tie1/Fc coated on CM5 chip; conditions: Fab analyte
# T1 construct: selected against the Tie1 extracellular domain fused to human Fc or to a histidine purification tag
# T1 sequence (P35590 22-759 limits assumed): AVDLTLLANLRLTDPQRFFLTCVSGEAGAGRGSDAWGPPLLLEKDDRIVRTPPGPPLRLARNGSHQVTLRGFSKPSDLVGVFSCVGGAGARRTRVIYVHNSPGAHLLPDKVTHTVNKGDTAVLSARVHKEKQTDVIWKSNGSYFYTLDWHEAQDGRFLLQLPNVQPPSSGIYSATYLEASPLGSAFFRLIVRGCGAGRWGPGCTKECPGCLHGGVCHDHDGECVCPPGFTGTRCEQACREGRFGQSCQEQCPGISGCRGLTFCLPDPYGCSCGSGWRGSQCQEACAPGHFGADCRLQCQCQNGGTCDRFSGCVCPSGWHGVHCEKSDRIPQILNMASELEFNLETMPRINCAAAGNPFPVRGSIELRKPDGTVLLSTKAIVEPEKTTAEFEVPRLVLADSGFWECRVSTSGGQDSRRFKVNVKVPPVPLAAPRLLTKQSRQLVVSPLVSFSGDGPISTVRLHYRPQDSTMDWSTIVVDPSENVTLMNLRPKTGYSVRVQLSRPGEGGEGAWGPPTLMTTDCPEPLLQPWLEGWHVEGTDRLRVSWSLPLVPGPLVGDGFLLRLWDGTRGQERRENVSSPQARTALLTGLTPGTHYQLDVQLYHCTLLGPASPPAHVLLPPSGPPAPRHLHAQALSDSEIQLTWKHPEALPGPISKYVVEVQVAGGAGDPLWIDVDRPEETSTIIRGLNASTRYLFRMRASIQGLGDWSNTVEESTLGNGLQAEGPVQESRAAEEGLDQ
# Description: To evaluate if the binding behaviour had been affected in any way by the conversion of the somatic mutations back to germline residues, the parental and the germlined E3b antibodies were produced and tested in Biacore as Fab fragments. Here, by contrast to what was done for the IgGs (see Example 28), and in order to measure a monovalent interaction, the Fabs were run over the antigen directly coated onto the surface.
# Recombinant human Tie1/Fc was coated on a CM5 chip. The surface of the chip was first activated with a 7-minute pulse of 0.05 M NHS/0.2 M EDC, then Tie1/Fc (2 μg/ml in 10 mM sodium acetate, pH 4.0) was run over the chip surface until 750 RUs were coated on the surface. All flow cells were subsequently deactivated with a 7-minute pulse of 1 M ethanolamine hydrochloride, pH 8.5. All further experiments were performed in HBS buffer.
# The parental and the germlined E3b Fabs were prepared. A series of dilution (50, 25, 12.5, 6.25 and 3.125 nM) was prepared in HBS buffer. Samples were injected at 30 μl/min for 5.3 minutes using the KINJECT™ program. This was followed by a 10-minute dissociation phase, and the remaining Fab was stripped from the surface with a single 18-sec injection of 50 mM NaOH/1 M NaCl.
# Sensorgrams were analyzed using the simultaneous ka/kd fitting program from the BIAEVALUATION™ software 3.1 assuming a 1:1 model.
Molecule,"immunoprecipitation of Tie1 from HUVEC (Tie1 [1]; 5 μg/ml antibody, detection with polyclonal goat anti-Tie1)",immunoprecipitation of Tie1 from platelets (Tie1 [1]),immunoprecipitation of Tie1 from platelets (Tie1 [1]; listed as DX-2200),staining pattern in SW480 mouse xenograft sections (Tie1 [2]),koff (human Tie1 Fc; Human Tie1 Fc coated on CM5) [s⁻¹],"kon (human Tie1 Fc; Human Tie1 Fc coated on CM5, 750 RU) [M⁻¹ s⁻¹]"
B1,able to immunoprecipitate Tie1 in HUVEC,not in platelets,nor did it immunoprecipitate Tie1 from platelet extracts,consistent with staining of mouse endothelial cell Tie1,–,–
B2,–,–,–,–,0.00105,88100
